experiment: soluble on expression in E. coli; label from the status in PepcDB or PDB records

Question: For “MGSDKIHHHHHHMIIEELHIVNFKSIAAADCRFSPKVNCLVGNNGMGKTNLLDALHFLSFCRSHLSVPDNMVVRHGEEMALLQGLYRDESGDGIELLLSIRPGKHKVLRRNKKEYERLSDHIGRFPLVIVSPQDYQLILGGSDERRRFMDQQLCQQDPRYLSALIQYNRHLQQRNTMLKQDRHDDALMDVLELQMGSYAAEICNKRSRFIEDFLPVFNDLYSDISGSAEKVSLSYRSHLADGIPLEELLRRSRPKDYLLGFSSCGVHKDELEMLLGGVLIRKIGSEGQNKTFLISMKLAQFRHQQLHGDETPILLLDDIFDKLDATRVERIIRLVGGNGFGQIFITDTNRKNLDEIIASWSEDYRLFKIENGQIFQ”, which “soluble on expression in E. coli” value is on record?
Answer: not soluble

Question: For “MSLHRFQYKAYRRSFAGTFANARESFAKREGLMIRLEDRDGRVGFGEVAPIVSFGSESFASAFSVAESLGEQVAFERVLPELAGYPCLRWACESALDMIAREGVWEELEKPWPICGLVADLGDLASVEEKLGMHYQCLKFKIGKKSLIEELKALDRVIELSEGKVQIRLDANGTLDMRTAIGWLERVAGLPVEFIEQPLPVGAEVEMRRLSADFPTLLALDESVDSVDDLKRWRDQQWPGLYVIKPSLSGSLLALGEELSGGAGDCVFSSSLETKIGESNAIGFAIRQSGHGRALGFGVERLFADRNVGLELGPFLQKGGLASSDDLESLWNLTEGHHHHHH”, which “soluble on expression in E. coli” value is on record?
Answer: soluble

Question: For “MMEKPEGLKLIDENGRRIDGRKKYELRPIKMKVGVLKNANGSAYIEWGRNKIIAAVYGPRELHSKHLQRPDRAILRVRYNMAPFSVEERKKPGPDRRSIEISKVIKGALEPALILEMFPRTSIDVFIEVLQADAGTRVAGITAASLALADAGIPMRDLVAACAAGKIEGEIVLDLNKEEDNYGEADVPVAIMPLKNDITLLQMDGYLTKEEFIEAVRLAIKGAKAVYQKQREALKEKYLKIAQEVEESE”, which “soluble on expression in E. coli” value is on record?
Answer: soluble

Question: For “MSLRRSKATDHQAAGPSPGPRDAFRPASVDEDVPAAVGRLLDRFLAERVARAAALDPVFAHDIAERVARFTLDGGKRTRSQFVWWAHRACGGPAAGAEAALRVGAALELIQTCALVHDDVMDGSRLRRGRPALHTDVSAQYADAVLPAPGTRFGEAAAILAGDLALAWADDVVADTDLAPDPGRRVREVWSCLRMEMVAGQYLDIQGQATSSHSEARAMRAACLKSALYSVQRPLELGAALAGADTATTQALCSAGRCVGLAFQLRDDLHDVFEEPRRTGKPSGGDIRAGKPTYLVAVARARAEAAGDRGALAVLRRSLGCADLSDADLARVRDVLVTTGARDTVEAEIDRLVAQGLRHMGAASLAPEGRRHLDALLRSAAGAPSVRRQAPDASRSENGMPVSLLLTATAEGAPEKGIITITTDPNSSSVDKLAAALEHHHHHH”, which “soluble on expression in E. coli” value is on record?
Answer: soluble

Question: For “MGSDKIHHHHHHVSPSILGQGEVEQLLTGTYRSLQNDPGRDTWVLFDMRGENLINTYLSGSNDFVNNEIPSNNGTLLTMWRGYYKAIYNANTTLSILSNLEPSEKNTHIEAQARFLRAYAYYCLATRWDGVPIIKDNTLENVKRDKQSAVFNFIKEELSFCIDEGHLKPFGETSGAPFTVSLEAAQALMARLALTTGDMETAKNMAETLIANPKFKLSENYDNIFTTTNNSEIIFSFRNNTSEGGQNLYALFTTYNSPMKGSWFLCPSPESEKLFEDPADTRNNTCITTLESVSETYIIMNKFRDFTPLIVSRIAEMYLISAEAQGRNGLNRLNELRRSRGLNPYNNSDIASEEDYQKKVALERRKELYCEGFLFFDLIRTNKISEEVVSMNGKTNLYLPLPESEVQYNPNLNEYN”, which “soluble on expression in E. coli” value is on record?
Answer: not soluble

Question: Which “soluble on expression in E. coli” value does the source give for “MSLPASARWQALQEVSILNTGAELPWGGKFSGVAKLIDDAFDAIEKDNEKLKGVLQRISGYAVNEDTLRGLIILFSDTHFTRPTYNGEPVHLGAKDILGHVYEYFLSRFAQAEGKRSGQYFTPKSIVSLIVEMLEPYSGRVYDPAMGSGGFFVQTERFITAHQGNINNVSIYGQEFNPTTWKLAAMNMAIRGIDYDFGKYNADSFTQPQHIDKKMDFIMANPHFNDKEWWNESLADDPRWAYGTPPKGNANFAWLQHMIYHLSPNGKIALLLANGSMSSQTNNEGEIRKAIINADLVECMVALPGQLFTNTKIPACIWFLNRNKKRKGEVLFIDARQIGYMKDRVLRDFTADDIAKIADTLHAWQTSDGYEDQAAFCKSATLEEIKNNDFVLTPGRYVGTAEQEDDGVPFAEKMQNLTALLKEQFAKSAELEAEIKKNLGGLGYEEGHHHHHH” here?
Answer: not soluble

Question: With “WSNNYAVDCPQHCDSSECKSSPRCERTVLDDCGCCRVCAAGRGETCYRTVSGMDGMKCGPGLRCQPSNGEDPFGEEFGICKDCPYGTFGMDCRETCNCQSGICDRGTGKCLKFPFFQYSVTKSSNRFVSLTEHDMASGDGNIVREEVVKENAAGSPVMRKWLNPR” as the sequence, how does the “soluble on expression in E. coli” value read?
Answer: soluble

Question: With “MSKKDVTKVVLDESDIPKQWYNILADMPNKPAPYFSSKTGKPVTLDELQAIFPMELIQQENSQERWIDIPEEVREMYRQWRPSPLYRARALEKHLGTPARIYYKYEGTNATGSHKLNTSLPQAYYNKIAGIKRLSTETGAGQWGSALSLACNHFGLECTVYMVKVSYEQKPYRRSFMKTFGAQVYASPTNLTSSGRAILEKDPDCTGSLGIAISEAVEDAATHDDTNYALGSVLNHVCLHQTIIGLEAKKQLEYLDEYPDVVFACCGGGSNFAGIAFPFLMDKFKGTKVRAVAVEPTACPTLTKGVYAYDYSDTGKIGPLAKMYTVGHDFVPAGIHAGGLRYHGVSPIVSQLYEDKLIEAKAYGQSSVFEAAVIFARTEGIVPAPESSHAIRAAIDEALLCKESGEAKVILFNLSGHGYFDMAAYDNYFSGKLSDVDYSEEEIARSMKNLPKVD” as the sequence, how does the “soluble on expression in E. coli” value read?
Answer: soluble

Question: Which “soluble on expression in E. coli” value does the source give for “PVYMVYVSQDRLTPSAKHAVAKAITDAHRGLTGTQHFLAQVNFNEQPAGNVFLGGVQQGGDTIFVHGLHREGRSADLKGQLAQRIVDDVSVAAEIDRKHIWVYFGEMPAQQMVEYGRFLPQPGHEGEWFDNLSSDERAFMETNVDVSRT” here?
Answer: soluble

Question: For “MGSDKIHHHHHHMPDTEEIARDSVVPPDVRRQAVNWLVELQSDIVTDETRDQWQKWRMSHPDHEYAWQQVEVFSRKLRGLPSPLAHAALTPPHSSSRRRAIKALTVLIFLGGGTWVAGEGRLWCWWPEDYCTGIGEHRAVTLSDGTGIELNSGSAITVNFDDTRRLIRLMNGEIMVTTAPDPRLANGIGAARPLLIETAQGILRAIGTRFTVRQFDVSQQGKSSVAVFEGAVEIQPITGRLRQLEVGQQAAFTRDGVIAVGMACEADTAWRQGMIVARDMPLIDFLAELGRHRSGWLSCDPAVAQLKVTGTYPLADIGKILAILQKTLPIDVQLFTRYWIRVGARQEDT”, which “soluble on expression in E. coli” value is on record?
Answer: not soluble

Question: For “MSIVNILSVNVLNNPAKFSDPYKFEITFECLEPLKSDLEWKLTYVGSATSQSYDQILDTLLVGPIPIGINKFVFEADPPNIDLLPQLSDVLGVTVILLSCAYEDNEFVRVGYYVNNEMEGLNLQEMDDAEIKKVKVDISKVWRSILAEKPRVTRFNIQWDN”, which “soluble on expression in E. coli” value is on record?
Answer: soluble

Question: With “MVDKLKQQNCTISTCESLTAGLMAATIANLPGSSQVLRGGLITYATDSKVSVAGVPGATVEEHGPVSWQCAEAMAIGAKRQFQSQWAVSLTGVAGPATQCGQPVGTVWIGVALPNGTVKSKLVADILCGPGQVVAGDRQTIRLAAVRAAAMWITDLLGLEYTNEN” as the sequence, how does the “soluble on expression in E. coli” value read?
Answer: not soluble

Question: With “MGSDKIHHHHHHMTLRERRQKHKAQFRQEILDASRELFSQIGYERFSMRKLAAKIEHSPTTIYLYFRDKDDLLYSLCEELFAKLFQSYQDISRGENDPRQVLRLCLLRYIEFGLANPGHYKVAFFTSPVVYGSPTEFLQKDSMGRRTYFHILRTVEETMAAGMLRPMDADLLAQTVWVAAHGVVTSRIYSADFPMVDAVLQAETLVDGLLAGFSVKNFFGTNIYTVN” as the sequence, how does the “soluble on expression in E. coli” value read?
Answer: not soluble

Question: For “PDIDGGILFLEDVGEQPYRIERMLNTLYLSGILKKQRAIVFGNFRMEKIRDVYDPSYDFSAVANHVSRTAKIPVLTGFPFGHIADKITFPLGAHARIRMNGNSGYSVAFEGYPTLDASALTLDTLLPPPDLPIFPESGVADISE”, which “soluble on expression in E. coli” value is on record?
Answer: not soluble

Question: With “MGSDKIHHHHHHMSTVESALTRRIMGIETEYGLTFVDGDSKKLRPDEIARRMFRPIVEKYSSSNIFIPNGSRLYLDVGSHPEYATAECDNLTQLINFEKAGDVIADRMAVDAEESLAKEDIAGQVYLFKNNVDSVGNSYGCHENYLVGRSMPLKALGKRLMPFLITRQLICGAGRIHHPNPLDKGESFPLGYCISQRSDHVWEGVSSATTRSRPIINTRDEPHADSHSYRRLHVIVGDANMAEPSIALKVGSTLLVLEMIEADFGLPSLELANDIASIREISRDATGSTLLSLKDGTTMTALQIQQVVFEHASKWLEQRPEPEFSGTSNTEMARVLDLWGRMLKAIESGDFSEVDTEIDWVIKKKLIDRFIQRGNLGLDDPKLAQVDLTYHDIRPGRGLFSVLQSRGMIKRWTTDEAILAAVDTAPDTTRAHLRGRILKAADTLGVPVTVDWMRHKVNRPEPQSVELGDPFSAVNSEVDQLIEYMTVHAESYRS” as the sequence, how does the “soluble on expression in E. coli” value read?
Answer: not soluble

Question: With “GQSGPLPKPSLQALPSSLVPLEKPVTLRCQGPPGVDLYRLEKLSSSRYQDQAVLFIPAMKRSLAGRYRCSYQNGSLWSLPSDQLELVATGVFAKPSLSAQPGPAVSSGGDVTLQCQTRYGFDQFALYKEGDPAPYKNPERWYRASFPIITVTAAHSGTYRCYSFSSRDPYLWSAPSDPLELVVT” as the sequence, how does the “soluble on expression in E. coli” value read?
Answer: soluble

Question: Which “soluble on expression in E. coli” value does the source give for “MDNGTDSSTSKFVPEYRRTNFKNKGRFSADELRRRRDTQQVELRKAKRDEALAKRRNFIPPTDGADSDEEDESSVSADQQFYSQLQQELPQMTQQLNSDDMQEQLSATVKFRQILSREHRPPIDVVIQAGVVPRLVEFMRENQPEMLQLEAAWALTNIASGTSAQTKVVVDADAVPLFIQLLYTGSVEVKEQAIWALGNVAGDSTDYRDYVLQCNAMEPILGLFNSNKPSLIRTATWTLSNLCRGKKPQPDWSVVSQALPTLAKLIYSMDTETLVDACWAISYLSDGPQEAIQAVIDVRIPKRLVELLSHESTLVQTPALRAVGNIVTGNDLQTQVVINAGVLPALRLLLSSPKENIKKEACWTISNITAGNTEQIQAVIDANLIPPLVKLLEVAEYKTKKEACWAISNASSGGLQRPDIIRYLVSQGCIKPLCDLLEIADNRIIEVTLDALENILKMGEADKEARGLNINENADFIEKAGGMEKIFNCQQNENDKIYEKAYKIIETYFGEEEDAVDETMAPQNAGNTFG” here?
Answer: soluble

Question: Which “soluble on expression in E. coli” value does the source give for “YNPLNSVEDSTNRRDTVLQNMVAAGYIDKNQETKAAEVDMTSQLHDKYEGKISDYRYPSYFDAVVNEAVSKYNLTEEEIVNNGY” here?
Answer: not soluble

Question: With “MNSFKTRDVQVAVEAVEKEKIEFIPLRRTLRYLIVGIDPGATTAIAALDLRGELVDMKSRKGWSPAEVIEFISSLGKPVVVSTDKSSPPEFVSKIRASFNAVLYTPKEDMSVEKKRILTSKYSTSNDLEHHHHHH” as the sequence, how does the “soluble on expression in E. coli” value read?
Answer: not soluble

Question: For “AIAGCASAKHVSTVQNEDDAQNGKNYQNGDAFCDEYRIKPVEEVKYMKNGEEEEQKILSKNQENLVSCLEEKSATHTARSKSNTEAAGAGHPYRINIHISESQQEFFRMLDEKIEKGRDYCSEEEDIT”, which “soluble on expression in E. coli” value is on record?
Answer: soluble

Question: Which “soluble on expression in E. coli” value does the source give for “MTSDIKAILEQVVISPDVPIAEAIAQLDRAGTGSLVVCSADKKLYGLLTDGDVRRALLKAVDMGAPCGDIANRKPVITFVPLLPIEALRLMNHHDINHLPVLDAEGRVVDFLLRRDLVAEDELAARARRRLDSVVIPCSASIAEAIAQLDRAGTGALVLCSEGDRLHGLLTDGDIRRAVLRGISLDAPCQDVASRRPVTVEPSFSAAQALHLMNQHDINHLPVVDDTGRVVDFLLRRDLIADDQLNLSAVVMAGGYGKRLLPLTEQVPKPMLPVGDRPLLERTIDQLRRSGIREVNLTTHYLPDSIVEHFGDGDSFGVKLNYLKEDHPLGTAGGLKLMKKASDPFLVMNGDILTGVPFQEMFAYHRKNGAEITVGVRKYEVQVPFGVVECDDVRITGLKEKPSLTFFINAGIYLLEPSVCDLIPEGERFDMTDLIQKLLDEGRSVVSFPIMEYWLDVGRHEDYQKAQEDVRSGKIQLEHHHHHH” here?
Answer: not soluble

Source: the DeepSol protein solubility set
